From patent US20090098570A1 (Daiichi Sankyo, published 2009)
One block for each binder: values may come before it. No end group written: not given here. *: point of attachment. Biotin = O=C1N[C@H]2[C@H](CS[C@H]2CCCCC(=O)*)N1

Key:
[1] = molecular target: T1, His-LXRα/FLAG-RXRα heterodimer (ligand binding domains of human LXRα and human RXRα) (human, UniProt Q13133 164-447; P19793 201-462); test: FRET (665/620 nm), anti-His tag antibody + streptavidin, biotinylated peptide; with Compound A, relative to DMSO-only control
T1 construct: Co-expressed in E. coli BL21(DE3) from pET15b-LXRα/FLAG-RXRα and purified together on Ni2+ resin; also called His-LXRα and FLAG-RXRα; heterodimer comprising LXRα and RXRα
T1 sequence 1: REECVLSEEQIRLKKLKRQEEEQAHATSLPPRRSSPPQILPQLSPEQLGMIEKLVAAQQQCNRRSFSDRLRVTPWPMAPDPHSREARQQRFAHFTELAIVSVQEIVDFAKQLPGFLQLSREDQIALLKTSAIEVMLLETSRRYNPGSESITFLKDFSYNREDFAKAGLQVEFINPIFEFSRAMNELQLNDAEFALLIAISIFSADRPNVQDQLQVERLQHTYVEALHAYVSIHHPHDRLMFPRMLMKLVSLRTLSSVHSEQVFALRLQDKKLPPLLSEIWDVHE
T1 sequence 2: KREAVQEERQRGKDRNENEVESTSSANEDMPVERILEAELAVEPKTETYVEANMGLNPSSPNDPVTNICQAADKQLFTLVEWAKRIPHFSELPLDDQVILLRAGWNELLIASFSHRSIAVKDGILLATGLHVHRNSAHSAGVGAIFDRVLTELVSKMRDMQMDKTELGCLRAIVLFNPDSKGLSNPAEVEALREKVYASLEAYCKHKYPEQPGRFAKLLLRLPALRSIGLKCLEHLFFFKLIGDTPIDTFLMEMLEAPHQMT
Method: (§1) Next, 10 μl of peptide reaction solution (1.00 μl of 5 μM peptide, 1.00 μl of 10× PBS, 2.50 μl of 2 M KF, 0.10 μl of 10% NP40, 0.20 μl of streptavidin (CIS Bio International) and 5.20 μl of H₂O) were added to each well of the 384-well assay plate and incubated for 17 hours at 4° C. The peptide added here was comprising of any of the amino acid sequences of (a) to (g) below, and the amino acid of the N-terminal was biotinylated.
(§2) The value obtained by multiplying 1000 by the value resulting from dividing the measured value at 665 nm when applying excitation light at 337 nm by the measured value at 620 nm was determined. This value was then divided by the value determined by the same method when only DMSO was added without adding LXR ligand (Compound A or Compound B), and this value was then multiplied by 100 and indicated as the percentage relative to the control (% of control) as shown in Table 6.
(§3) (1) According to the same method as Example 2) (using the following peptides (h) to (m), instead of the peptides (a) to (g) in Example 2), the amount of coactivator bound to the heterodimer LXRα and RXRα were determined.

[2] = molecular target: T1, His-LXRα/FLAG-RXRα heterodimer (ligand …); test: FRET (665/620 nm), anti-His tag antibody + streptavidin, biotinylated peptide; with Compound B, relative to DMSO-only control
Method: as §1, §2, §3

[3] = molecular target: T1, His-LXRα/FLAG-RXRα heterodimer (ligand …); test: FRET (665/620 nm), anti-His tag antibody + streptavidin, biotinylated peptide; with Compound A, relative to DMSO-only control; remark: listed apart in the source
[4] = molecular target: T1, His-LXRα/FLAG-RXRα heterodimer (ligand …); test: FRET (665/620 nm), anti-His tag antibody + streptavidin, biotinylated peptide; with Compound B, relative to DMSO-only control; remark: listed apart in the source
[5] = molecular target: T2, His-LXRβ/FLAG-RXRα heterodimer (ligand binding domains of human LXRβ and human RXRα) (human) (UniProt P55055); test: as above
T2 sequence 1: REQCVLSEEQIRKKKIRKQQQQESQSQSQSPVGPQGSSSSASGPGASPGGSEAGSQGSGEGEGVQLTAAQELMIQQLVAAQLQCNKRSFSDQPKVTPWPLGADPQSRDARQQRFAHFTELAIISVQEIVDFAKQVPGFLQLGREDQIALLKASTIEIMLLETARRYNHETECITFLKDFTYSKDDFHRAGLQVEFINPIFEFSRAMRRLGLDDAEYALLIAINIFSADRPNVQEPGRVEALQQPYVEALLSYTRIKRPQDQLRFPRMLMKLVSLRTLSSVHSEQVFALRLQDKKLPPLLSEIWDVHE
T2 sequence 2: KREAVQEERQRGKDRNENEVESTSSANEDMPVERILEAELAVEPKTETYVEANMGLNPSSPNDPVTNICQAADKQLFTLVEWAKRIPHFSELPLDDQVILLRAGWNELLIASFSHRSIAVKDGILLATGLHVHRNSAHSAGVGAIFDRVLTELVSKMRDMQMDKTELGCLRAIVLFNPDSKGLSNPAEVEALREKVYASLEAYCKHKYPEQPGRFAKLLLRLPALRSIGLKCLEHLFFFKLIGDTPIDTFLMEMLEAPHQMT

[6] = molecular target: T2, His-LXRβ/FLAG-RXRα heterodimer (ligand binding domains of human LXRβ and human RXRα) (human); test: FRET (665/620 nm), anti-His tag antibody + streptavidin, biotinylated peptide; with Compound A, relative to DMSO-only control
[7] = molecular target: T3, His-LXRβ/FLAG-RXRα heterodimer (ligand binding domains of human LXRβ and human RXRα) (human, UniProt P55055 155-460; P19793 201-462, limits assumed); test: as above
T3 construct: Co-expressed in E. coli BL21(DE3) from pET15b-LXRβ/FLAG-RXRα and purified together on Ni2+ resin; also called His-LXRβ and FLAG-RXRα; heterodimer comprising LXRβ and RXRα
T3 sequence 1: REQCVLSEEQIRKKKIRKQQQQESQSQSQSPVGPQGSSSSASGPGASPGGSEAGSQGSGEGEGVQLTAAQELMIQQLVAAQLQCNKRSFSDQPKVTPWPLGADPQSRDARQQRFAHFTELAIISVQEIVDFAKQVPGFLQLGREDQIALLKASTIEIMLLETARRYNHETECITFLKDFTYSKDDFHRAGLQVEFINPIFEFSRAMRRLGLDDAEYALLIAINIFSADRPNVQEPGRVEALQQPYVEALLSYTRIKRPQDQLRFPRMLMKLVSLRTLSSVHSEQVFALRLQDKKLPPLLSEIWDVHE
T3 sequence 2: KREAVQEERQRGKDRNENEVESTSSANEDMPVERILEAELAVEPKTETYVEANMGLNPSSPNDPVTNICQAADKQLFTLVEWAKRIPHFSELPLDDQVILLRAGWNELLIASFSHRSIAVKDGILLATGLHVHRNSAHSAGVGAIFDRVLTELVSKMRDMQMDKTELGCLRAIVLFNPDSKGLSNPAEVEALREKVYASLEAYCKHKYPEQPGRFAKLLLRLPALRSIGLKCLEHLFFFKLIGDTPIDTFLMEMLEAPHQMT

[8] = molecular target: T3, His-LXRβ/FLAG-RXRα heterodimer (ligand …); test: FRET (665/620 nm), anti-His tag antibody + streptavidin, biotinylated peptide; with Compound B, relative to DMSO-only control

Binder: Biotin-SPKKKENNALLRYLLDRDDPSDALSK [ACTR NRB3 peptide SPKKKENNALLRYLLDRDDPSDALSK (aa 728-753)]
% of control [1]: 167 % of control
% of control [2]: 92 % of control

Binder: Biotin-NKDVTLTSPLLVNLLQSDISAGHFGVNNKQ [ASC-2 NR-1 peptide NKDVTLTSPLLVNLLQSDISAGHFGVNNKQ (LXXLL motif on the N-terminal side of ASC-2)]
% of control [3]: 156 % of control
% of control [4]: 116 % of control

Binder: Biotin-HSKASWAEFSILRELLAQDVLCD [PERC NRB2 peptide … (aa 332-354)]
% of control [5]: 115 % of control
% of control [6]: 104 % of control

Binder: Biotin-HSKASWAEFSILRELLAQDVLCD [PERC NRB2 peptide HSKASWAEFSILRELLAQDVLCD (aa 332-354)]
% of control [1]: 127 % of control
% of control [2]: 104 % of control

Binder: Biotin-KNPTSCSRRFYQLTKLLDSVQPIAR [PNRC peptide … (aa 848-872)]
% of control [5]: 107 % of control
% of control [6]: 109 % of control

Binder: Biotin-SPAMREAPTSLSQLLDNSGAPNVTIKPPGL [ASC-2 NR-2 peptide … (LXXLL motif on the C-terminal side of ASC-2)]
% of control [5]: 116 % of control
% of control [6]: 120 % of control

Binder: Biotin-NKDVTLTSPLLVNLLQSDISAGHFGVNNKQ [ASC-2 NR-1 peptide … (LXXLL motif on the N-terminal side of ASC-2)]
% of control [5]: 115 % of control
% of control [6]: 114 % of control

Binder: Biotin-CPSSHSSLTERHKILHRLLQEGSPS [SRC-1-2 peptide CPSSHSSLTERHKILHRLLQEGSPS (the second LXXLL motif from the N-terminal side of SRC-1)]
% of control [3]: 267 % of control
% of control [4]: 182 % of control

Binder: Biotin-CCFCGEDHPRQGSILYSLLTSSKQT (cysteine pairing not given here) [DAX1 peptide … (aa 132-156)]
% of control [5]: 120 % of control
% of control [6]: 116 % of control

Binder: Biotin-SPKKKENNALLRYLLDRDDPSDALSK [ACTR NRB3 peptide … (aa 728-753)]
% of control [5]: 103 % of control
% of control [6]: 129 % of control

Binder: Biotin-DGTPPPQEAEEPSLLKKLLLAPANT [PGC-1α peptide DGTPPPQEAEEPSLLKKLLLAPANT (aa 130-154)]
% of control [3]: 362 % of control
% of control [7]: 191 % of control
% of control [4]: 207 % of control
% of control [8]: 195 % of control

Binder: Biotin-KNPTSCSRRFYQLTKLLDSVQPIAR [PNRC peptide KNPTSCSRRFYQLTKLLDSVQPIAR (aa 848-872)]
% of control [1]: 140 % of control
% of control [2]: 110 % of control

Binder: Biotin-CCFCGEDHPRQGSILYSLLTSSKQT (cysteine pairing not given here) [DAX1 peptide CCFCGEDHPRQGSILYSLLTSSKQT (aa 132-156)]
% of control [1]: 158 % of control
% of control [2]: 107 % of control

Binder: Biotin-SPAMREAPTSLSQLLDNSGAPNVTIKPPGL (also called ASC2 MR-2) [ASC-2 NR-2 peptide SPAMREAPTSLSQLLDNSGAPNVTIKPPGL (LXXLL motif on the C-terminal side of ASC-2)]
% of control [3]: 254 % of control
% of control [4]: 137 % of control

Further lines, results first:

% of control [3]: 267 % of control
% of control [4]: 157 % of control
Binder: Biotin-HGTSLKEKHKILHRLLQDSSSPVDL [TIF2 peptide HGTSLKEKHKILHRLLQDSSSPVDL (aa 679-703)]

% of control [5]: 108 % of control
% of control [6]: 111 % of control
Binder: Biotin-KESKDHQLLRYLLDKDEKDL [SRC-1-3 peptide … (the third LXXLL motif from the N-terminal side of SRC-1)]

% of control [3]: 207 % of control
% of control [7]: 155 % of control
% of control [4]: 128 % of control
% of control [8]: 144 % of control
Binder: Biotin-QKPTSGPQTPQAQQKSLLQQLLTE [SRC-1-4 peptide QKPTSGPQTPQAQQKSLLQQLLTE (the fourth LXXLL motif from the N-terminal side of SRC-1)]

% of control [5]: 114 % of control
% of control [6]: 108 % of control
Binder: Biotin-HGTSLKEKHKILHRLLQDSSSPVDL [TIF2 peptide … (aa 679-703)]

% of control [5]: 124 % of control
% of control [6]: 125 % of control
Binder: Biotin-KQEPVSPKKKENALLRYLLDKDDTK [TIF2 NRB2 peptide … (aa 731-755)]

% of control [1]: 131 % of control
% of control [2]: 107 % of control
Binder: Biotin-GHGEDFSKVSQNPILTSLLQITGNG [TRAP220 peptide GHGEDFSKVSQNPILTSLLQITGNG (aa 590-614)]

% of control [5]: 116 % of control
% of control [6]: 111 % of control
Binder: Biotin-GHGEDFSKVSQNPILTSLLQITGNG [TRAP220 peptide … (aa 590-614)]

% of control [5]: 119 % of control
% of control [6]: 120 % of control
Binder: Biotin-CPSSHSSLTERHKILHRLLQEGSPS [SRC-1-2 peptide … (the second LXXLL motif from the N-terminal side of SRC-1)]

% of control [1]: 268 % of control
% of control [2]: 127 % of control
Binder: Biotin-KQEPVSPKKKENALLRYLLDKDDTK [TIF2 NRB2 peptide KQEPVSPKKKENALLRYLLDKDDTK (aa 731-755)]

% of control [3]: 181 % of control
% of control [4]: 112 % of control
Binder: Biotin-KESKDHQLLRYLLDKDEKDL [SRC-1-3 peptide KESKDHQLLRYLLDKDEKDL (the third LXXLL motif from the N-terminal side of SRC-1)]
